Among the data in the RNAGym collection of RNA variant scans (doi:10.7554/elife.80360) are self-cleavage values, retold here.

The labels stand for the following.
B1: Hairpin Ribozyme (parent)
chain: GUCCUCUUUCACGUGCGCGUGAAAGAGAGAAGUGAACCAGAGAAACACACGUUGUGGUAUAUUACCUGGUA

This data set covers variants of B1. As to the kind of experiment: self-cleavage, relative activity (ratio to wild type); higher = more cleavage; co-transcriptional.
CUCCUCUUUCACGUGCGCGUGAAAGAGAGAAGUGAACUAGAGAAACACACGUUGUGGUAUAUUACCUGGUA [G1C C38U]: the self-cleavage is 0.198. The value for CUCCUCUUUCACGUGCGCGUGAAAGAGAGAAGUGAACCAGAGAAACACACCUUGUGGUAUAUUACCUGGUA [G1C G51C] was 0.0946; that for CUCCUCUUUCACGUGCGCGUGAAAGAGAGAAGUGAACCAGAGAAACACACUUUGUGGUAUAUUACCUGGUA [G1C G51U] was 0.181. For CUCCUCUUUCACGUGCGCGUGAAAGAGAGAAGUGAACCCGAGAAACACACGUUGUGGUAUAUUACCUGGUA [G1C A39C] the value was 0.225; for CUCCUCUUUCACGUGCGCGUGAAAGAGAGAAGUGAACCGGAGAAACACACGUUGUGGUAUAUUACCUGGUA [G1C A39G], 0.146; for CUCCUCUUUCACGUGCGCGUGAAAGAGAGAAGUGAACCAGAGAAACACACGUUGUGGUAUAGUACCUGGUA [G1C U62G], 0.4. Consider CUCCUCUUUCACGUGCGCGUGAAAGAGAGAAGUGAACCAGAGAAACACACGUUGUGGUAUAAUACCUGGUA [G1C U62A], for which the self-cleavage was 0.0347. For CUCCUCUUUCACGUGCGCGUGAAAGAGAGAAGUGAACCAGAGAAACACACGUAGUGGUAUAUUACCUGGUA [G1C U53A] the value was 0.2; for CUCCUCUUUCACGUGCGCGUGAAAGAGAGAAGUGAACCAGAGAAACACACGUUGUGGUAUAUGACCUGGUA [G1C U63G], 0.0496.

In the case of CUCCUCUUUCACGUGCGCGUGAAAGAGAGAAAUGAACCAGAGAAACACACGUUGUGGUAUAUUACCUGGUA [G1C G32A], the self-cleavage was found to be 0.198. The value for CUCCUCUUUCACGUGCGCGUGAAAGAGAGAAGUUAACCAGAGAAACACACGUUGUGGUAUAUUACCUGGUA [G1C G34U] was 0.344; that for CUCCUCUUUCACGUGGGCGUGAAAGAGAGAAGUGAACCAGAGAAACACACGUUGUGGUAUAUUACCUGGUA [G1C C16G] was 0.238; that for UUCCUCUUUCGCGUGCGCGUGAAAGAGAGAAGUGAACCAGAGAAACACACGUUGUGGUAUAUUACCUGGUA [G1U A11G] was 0.143. For UUCCUCUUUCUCGUGCGCGUGAAAGAGAGAAGUGAACCAGAGAAACACACGUUGUGGUAUAUUACCUGGUA [G1U A11U] the value was 0.201; for CUCCUCUUUCACUUGCGCGUGAAAGAGAGAAGUGAACCAGAGAAACACACGUUGUGGUAUAUUACCUGGUA [G1C G13U], 0.225; for CUCCUCUUUCACAUGCGCGUGAAAGAGAGAAGUGAACCAGAGAAACACACGUUGUGGUAUAUUACCUGGUA [G1C G13A], 0.0408.

As to CUCCUCUUUCACCUGCGCGUGAAAGAGAGAAGUGAACCAGAGAAACACACGUUGUGGUAUAUUACCUGGUA [G1C G13C], the self-cleavage was determined as 0.179. For CUCCUCUUUCACGUGCGCGUGAAAGAGAGAAGUGAACCAGAGAAACACACGUUGUGGGAUAUUACCUGGUA [G1C U58G] the value was 0.284; for CUCCUCUUUCACGUGCGCGUGAAAGAGACAAGUGAACCAGAGAAACACACGUUGUGGUAUAUUACCUGGUA [G1C G29C], 0.203; for CUCCUCUUUCACGUGCGCGCGAAAGAGAGAAGUGAACCAGAGAAACACACGUUGUGGUAUAUUACCUGGUA [G1C U20C], 0.241.

Consider CUCCUCUUUCACGUGCGCGUGAAAGAGAGGAGUGAACCAGAGAAACACACGUUGUGGUAUAUUACCUGGUA [G1C A30G], for which the self-cleavage stood at 0.322. For CUCCUCUUUCACGUGCGCGUGAAAGAGAGAAGUGAACCAGGGAAACACACGUUGUGGUAUAUUACCUGGUA [G1C A41G] the value was 0.129; for CUCCUCUUUCACGUGCACGUGAAAGAGAGAAGUGAACCAGAGAAACACACGUUGUGGUAUAUUACCUGGUA [G1C G17A], 0.232; for CUCCUCUUUCACGUGCCCGUGAAAGAGAGAAGUGAACCAGAGAAACACACGUUGUGGUAUAUUACCUGGUA [G1C G17C], 0.295. For CUCCUCUUUCACGUGCGCGUGAAAGAGAGAAGUGAACCAGAGAAACACACGUUGCGGUAUAUUACCUGGUA [G1C U55C] the value was 0.18; for CUCCUCUUUCACGUGCGCGUGAAAGAGAGAAGUGAACCAGAGAAACACACGUUGAGGUAUAUUACCUGGUA [G1C U55A], 0.0884.

As for CUCCUCUUUCACGUGCGCGUGAAAGAGAGAAGUGACCCAGAGAAACACACGUUGUGGUAUAUUACCUGGUA [G1C A36C], the self-cleavage worked out at 0.107. For CUCCUCUUUCACGUGCGCGUGAAAGAGAGAAGUGAGCCAGAGAAACACACGUUGUGGUAUAUUACCUGGUA [G1C A36G] the value was 0.105; for CACCUCUUUCACGUGCGCGUGAAAGAGAGAAGUGAACCAGAGAAACACACGUUGUGGUAUAUUACCUGGUA [G1C U2A], 0.251. For CGCCUCUUUCACGUGCGCGUGAAAGAGAGAAGUGAACCAGAGAAACACACGUUGUGGUAUAUUACCUGGUA [G1C U2G] the value was 0.306; for CUCCUCUUUCACGUGCGCGUGAAAGAGAGAAGUGAACCAGACAAACACACGUUGUGGUAUAUUACCUGGUA [G1C G42C], 0.272; for CUCCUCUUUCACGUGCGCGUGAAAGAGAGAAGUGAACCAGAGAAACACACGUUGUGGUAUAUUACCUGAUA [G1C G69A], 0.141. For CUCCUCUUUCACGUGCGCGUGAAAGAGAGAAGUGAACCAGAGAAACACACGUUGUGGUAUAUUACCUGUUA [G1C G69U], the self-cleavage came to 0.144. Consider CUCCUCUUUCACGUACGCGUGAAAGAGAGAAGUGAACCAGAGAAACACACGUUGUGGUAUAUUACCUGGUA [G1C G15A], for which the self-cleavage was found to be 0.184. For CUCCUCUAUCACGUGCGCGUGAAAGAGAGAAGUGAACCAGAGAAACACACGUUGUGGUAUAUUACCUGGUA [G1C U8A] the value was 0.27. For CUCCUCUUUCACGUGCGCGUGAAAGAGAGAAGUGAACCAGAGAAACACACGUUGUGGUAUAUUACCCGGUA [G1C U67C] the value was 0.119; for CUCCUCUUUCACGUGCGCGUGAAAGAGAGAAGUGAACCAGAGAAACACACGUUGUGGUGUAUUACCUGGUA [G1C A59G], 0.0434; for CUCCUCUUUCACGUGCGCGUGAAAGAGAGAAGUGAACCAGAGAAACACACGUUGUGGUUUAUUACCUGGUA [G1C A59U], 0.114.
